Data taken from patent publication US20230226096A1 (Orna Therapeutics, Inc., priority 2020, published 2023).

B1: Avian orthoreovirus segment S1 (nucleic acid, listed as Avian orthoreovirus)
DNA: GCTTTTTCAATCCCTTGTGTCGATGTTCCCGTATGTCATCTGGTTCATGTAACGGTGCAACTTCTATTTTTGGTAACGTTCACTGTCAGGCAGCGCAAAACTCGGCGGGTGGTGATCTTCAAGCGACTTCCTCTCTTGTTGCTTATTGGCCCTACTTGGCTGCGGGCGGTGGTCTGCTCGTTGTTATTATTATAATTGTTGGCGCTGTTTGTTGTTGCAAGGCTAAGGTTAAAGCGGACGCAGCCCGAAACGTTTTCTACCGAGAGCTGTTCGCACTTAATTCGGGTAAAAGTGATGCAGGACCTCCGATTTACCAGGTTTAGTGTACGACGATTTGAGTTTTCACCTTTCGTCTTAGAGGAGTGCACTACTCCATCTTTCACGACTATAACTAATACCGATCCGGCTCTCTACTTTAACATTGAGTTTCCGTCAAGTCATCGTCTCTCCCCCTTCATTCCAGAACTGTTGTCTCAGCCTTGTACCGTTCACGTTTCATTGATTCGGAGATTCGCTCTCTGTGCAACCTTATCTAGTATTTGTGAATACGACTGTGCGCTACTGCCATCCATCAACGCTATTACGACGATCCCTACACCAGGTGCGTCATCATCTCTGATTGTTCATTGGG
B2: Caprine Kobuvirus d40 (nucleic acid, listed as Kobuvirus sp.)
DNA: GTGGCCACGCCCGGGCCACCGATACTTCCCTTCACTCCTTCGGGACTGTTGGGGAGGAACACAACAGGGCTCCCCTGTTTTCCCATTCCTTCCCCCTTTTCCCAACCCCAACCGCCGTATCTGGTGGCGGCAAGACACACGGGTCTTTCCCTCTAAAGCACAATTGTGTGTGTGTCCCAGGTCCTCCTGCGTACGGTGCGGGAGTGCTCCCACCCAACTGTTGTAAGCCTGTCCAACGCGTCGTCCTGGCAAGACTATGACGTCGCATGTTCCGCTGCGGATGCCGACCGGGTAACCGGTTCCCCAGTGTGTGTAGTGCGATCTTCCAGGTCCTCCTGGTTGGCGTTGTCCAGAAACTGCTTCAGGTAAGTGGGGTGTGCCCAATCCCTACAAAGGTTGATTCTTTCACCACCTTAGGAATGCTCCGGAGGTACCCCAGCAACAGCTGGGATCTGACCGGAGGCTAATTGTCTACGGGTGGTGTTTCCTTTTTCTTTTCACACAACTCTACTGCTGACAACTCACTGACTATCCACTTGCTCTCTTGTGCCTTTCTGCTCTGGTTCAAGTTCCTTGATTGTTTTTGACTGCTTTTCACTGCTTTTCTTCTCACAATCCTTGCTCAGTTCAAAGTC
B3: Aichivirus A FSS693 (nucleic acid)
DNA: CACCCATACACCCCCACCCCCTTTTCTGTAACTCAAGTATGTGTGCTCGTAATCTTGACTCCCACGGAATGGATCGATCCGCTGGAGAACAAACTGCTAGATCCACATCCTCCCTCCCCTTGGGAGGACCTCGGTCCTCCCACATCCTCCCTCCAGCCTGACGTATCACAGGCTGTGTGAAGCCCCCGCGAAAGCTGCTCACGTGGCAATTGTGGGTCCCCCCTTCATCAAGACACCAGGTCTTTCCTCCTTAAGGCTAGCCCCGATGTGTGAATTCACATTGGGCAACTAGTGGTGTCACTGTGCGCTCCCAATCTCGGCCGCGGAGTGCTGTTCCCCAAGCCAAACCCCTGGCCCTTCACTATGTGCCTGGCAAGCATATCTGAGAAGGTGTTCCGCTGTGGCTGCCAGCCTGGTAACAGGTGCCCCAGTGTGCGTAACCTTCTTCCGTCTCCGGACGGTAGTGATTGGTTAAGATTTGGTGTAAGGTTCATGTGCCAACGCCCTGTGCGGGATGAAACCTCTACTGCCCTAGGAATGCCAGGCAGGTACCCCACCTTCGGGTGGGATCTGAGCCTGGGCTAATTGTCTACGGGTAGTTTCATTTCCAATTCTTTTATGCTGGAGTC
modifications: Aichivirus A
B4: Caprine Kobuvirus d30 (nucleic acid, listed as Kobuvirus sp.)
DNA: CTCTTTTCCGGTGGCCACGCCCGGGCCACCGATACTTCCCTTCACTCCTTCGGGACTGTTGGGGAGGAACACAACAGGGCTCCCCTGTTTTCCCATTCCTTCCCCCTTTTCCCAACCCCAACCGCCGTATCTGGTGGCGGCAAGACACACGGGTCTTTCCCTCTAAAGCACAATTGTGTGTGTGTCCCAGGTCCTCCTGCGTACGGTGCGGGAGTGCTCCCACCCAACTGTTGTAAGCCTGTCCAACGCGTCGTCCTGGCAAGACTATGACGTCGCATGTTCCGCTGCGGATGCCGACCGGGTAACCGGTTCCCCAGTGTGTGTAGTGCGATCTTCCAGGTCCTCCTGGTTGGCGTTGTCCAGAAACTGCTTCAGGTAAGTGGGGTGTGCCCAATCCCTACAAAGGTTGATTCTTTCACCACCTTAGGAATGCTCCGGAGGTACCCCAGCAACAGCTGGGATCTGACCGGAGGCTAATTGTCTACGGGTGGTGTTTCCTTTTTCTTTTCACACAACTCTACTGCTGACAACTCACTGACTATCCACTTGCTCTCTTGTGCCTTTCTGCTCTGGTTCAAGTTCCTTGATTGTTTTTGACTGCTTTTCACTGCTTTTCTTCTCACAATCCTTGCTCAGTTCAAAGTC
B5: Caprine Kobuvirus d20 (nucleic acid, listed as Kobuvirus sp.)
DNA: CCCCCTCACCCTCTTTTCCGGTGGCCACGCCCGGGCCACCGATACTTCCCTTCACTCCTTCGGGACTGTTGGGGAGGAACACAACAGGGCTCCCCTGTTTTCCCATTCCTTCCCCCTTTTCCCAACCCCAACCGCCGTATCTGGTGGCGGCAAGACACACGGGTCTTTCCCTCTAAAGCACAATTGTGTGTGTGTCCCAGGTCCTCCTGCGTACGGTGCGGGAGTGCTCCCACCCAACTGTTGTAAGCCTGTCCAACGCGTCGTCCTGGCAAGACTATGACGTCGCATGTTCCGCTGCGGATGCCGACCGGGTAACCGGTTCCCCAGTGTGTGTAGTGCGATCTTCCAGGTCCTCCTGGTTGGCGTTGTCCAGAAACTGCTTCAGGTAAGTGGGGTGTGCCCAATCCCTACAAAGGTTGATTCTTTCACCACCTTAGGAATGCTCCGGAGGTACCCCAGCAACAGCTGGGATCTGACCGGAGGCTAATTGTCTACGGGTGGTGTTTCCTTTTTCTTTTCACACAACTCTACTGCTGACAACTCACTGACTATCCACTTGCTCTCTTGTGCCTTTCTGCTCTGGTTCAAGTTCCTTGATTGTTTTTGACTGCTTTTCACTGCTTTTCTTCTCACAATCCTTGCTCAGTTCAAAGTC
B6: Caprine Kobuvirus d10 (nucleic acid, listed as Kobuvirus sp.)
DNA: GGGGCCTCGGCCCCCTCACCCTCTTTTCCGGTGGCCACGCCCGGGCCACCGATACTTCCCTTCACTCCTTCGGGACTGTTGGGGAGGAACACAACAGGGCTCCCCTGTTTTCCCATTCCTTCCCCCTTTTCCCAACCCCAACCGCCGTATCTGGTGGCGGCAAGACACACGGGTCTTTCCCTCTAAAGCACAATTGTGTGTGTGTCCCAGGTCCTCCTGCGTACGGTGCGGGAGTGCTCCCACCCAACTGTTGTAAGCCTGTCCAACGCGTCGTCCTGGCAAGACTATGACGTCGCATGTTCCGCTGCGGATGCCGACCGGGTAACCGGTTCCCCAGTGTGTGTAGTGCGATCTTCCAGGTCCTCCTGGTTGGCGTTGTCCAGAAACTGCTTCAGGTAAGTGGGGTGTGCCCAATCCCTACAAAGGTTGATTCTTTCACCACCTTAGGAATGCTCCGGAGGTACCCCAGCAACAGCTGGGATCTGACCGGAGGCTAATTGTCTACGGGTGGTGTTTCCTTTTTCTTTTCACACAACTCTACTGCTGACAACTCACTGACTATCCACTTGCTCTCTTGTGCCTTTCTGCTCTGGTTCAAGTTCCTTGATTGTTTTTGACTGCTTTTCACTGCTTTTCTTCTCACAATCCTTGCTCAGTTCAAAGTC
B7: Caprine Kobuvirus d50 (nucleic acid, listed as Kobuvirus sp.)
DNA: CCGGGCCACCGATACTTCCCTTCACTCCTTCGGGACTGTTGGGGAGGAACACAACAGGGCTCCCCTGTTTTCCCATTCCTTCCCCCTTTTCCCAACCCCAACCGCCGTATCTGGTGGCGGCAAGACACACGGGTCTTTCCCTCTAAAGCACAATTGTGTGTGTGTCCCAGGTCCTCCTGCGTACGGTGCGGGAGTGCTCCCACCCAACTGTTGTAAGCCTGTCCAACGCGTCGTCCTGGCAAGACTATGACGTCGCATGTTCCGCTGCGGATGCCGACCGGGTAACCGGTTCCCCAGTGTGTGTAGTGCGATCTTCCAGGTCCTCCTGGTTGGCGTTGTCCAGAAACTGCTTCAGGTAAGTGGGGTGTGCCCAATCCCTACAAAGGTTGATTCTTTCACCACCTTAGGAATGCTCCGGAGGTACCCCAGCAACAGCTGGGATCTGACCGGAGGCTAATTGTCTACGGGTGGTGTTTCCTTTTTCTTTTCACACAACTCTACTGCTGACAACTCACTGACTATCCACTTGCTCTCTTGTGCCTTTCTGCTCTGGTTCAAGTTCCTTGATTGTTTTTGACTGCTTTTCACTGCTTTTCTTCTCACAATCCTTGCTCAGTTCAAAGTC
B8: Picornavirales sp. isolate RtMruf-PicoV (nucleic acid)
DNA: TTTGCTCAGCGTAACTTCTCCGGGTTACGTGGAGACCAAAAGGCTACGGAGACTCGGGCTACGGCCCTGGAGCACCTAGGTGCTCCTAAAGACGTTAGAAGTTGTACAAACTCGCCCAATAGGGCCCCCCAACCAGGGGGGTAGCGGGCAAGCACTTCTGTTTCCCCGGTATGATCTCATAGGCTGTACCCACGGCTGAAAGAGAGATTATCGTTACCCGCCTCACTACTTCGAGAAGCCCAGTAATGGTTCATGAAGTTGATCTCGTTGACCCGGTGTTTCCCCCACACCAGAAACCTGTGATGGGGGTGGTCATCCCGGTCATGGCGACATGACGGACCTCCCCGCGCCGGCACAGGGCCTCTTCGGAGGACGAGTGACATGGATTCAACCGTGAAGAGCCTATTGAGCTAGTGTTGATTCCTCCGCCCCCGTGAATGCGGCTAATCCCAACTCCGGAGCAGGCGGGCCCAAACCAGGGTCTGGCCTGTCGTAACGCGAAAGTCTGGAGCGGAACCGACTACTTTCGGGAAGGCGTGTTTCCTTTTGTTCCTTTTATCAAGTTTTATGGTGACAACTCCTGGTAGACGTTTTATTGCGTTTATTGAGAGATTTCCAACAATTGAACAGACTAGAACCACTTGTTTTATCAAACCCTCACAGAATAAGATAACA

These molecules were tested on HEK293 cells. Settings: luminescence from secreted Gluc in supernatant 24 hours after transfection of HEK293 cells; circular RNA encoding Gluc with the named IRES (UTR truncated to 675 nt).
Assay type: cell-based, human

First: B1
Second: B2
The Expression of the first is lower: 4.37E+05 for the first, 2.15E+08 for the second.

Going from B3 to B4, the Expression rises from 6.25E+07 to 1.87E+08.

First: B5
Second: B6
The Expression of the first is lower: 2.00E+08 for the first, 2.20E+08 for the second.

First: B7
Second: B8
The Expression of the first is lower: 9.65E+07 for the first, 2.26E+08 for the second.
